The values below come from patent publication US20240131155A1, “T CELLS FOR USE IN THERAPY” (Erasmus University Medical Center Rotterdam, priority 2021, published 2024).

Experiment [1] addresses T1, HLA-A2 (HLA-A2:01) on T2 cells (human).
T1 construct: detected with anti-HLA-A2 mAb BB7.2
Kind of experiment: HLA-A2 stabilization assay on T2 cells (anti-HLA-A2-PE, flow cytometry), single peptide concentration [panel B; D00018 Figure 7 continued, panel D].

The target of experiment [2] is T1, HLA-A2 (HLA-A2:01) on T2 cells. Kind of experiment: HLA-A2 stabilization assay on T2 cells (anti-HLA-A2-PE, flow cytometry), single peptide concentration [panel D]. (In general: In flow cytometry, cells or beads pass a laser one at a time.)
Experiment [3] has the same target. Kind of experiment: HLA-A2 stabilization assay on T2 cells (anti-HLA-A2-PE, flow cytometry), single peptide concentration 25 ug/mL [panel E].
The target is the same in experiment [4]. Kind of experiment: HLA-A2 stabilization assay on T2 cells (anti-HLA-A2-PE, flow cytometry), single peptide concentration [panel C; D00007 Figure 3 continued, panel E].
Experiment [5] has the same target. Kind of experiment: HLA-A2 stabilization assay on T2 cells, peptide titration; amplitude relative to that of reference peptide YLE [panel D].
The target is the same in experiment [6]. Kind of experiment: HLA-A2 stabilization assay on T2 cells, peptide titration (Example 2); column Affinity for HLA.A2.01 (M).
For experiment [7] the target is unchanged. Kind of experiment: HLA-A2 stabilization assay on T2 cells, peptide titration; amplitude relative to that of reference peptide YLE; EC50 cell is 'x' [panel D].
For experiment [8], the target named is MLN epitope (…) presented by HLA-A2 on cells (human). Kind of experiment: cell-based or functional assay.
Experiment [9] concerns the target T1, HLA-A2 (HLA-A2:01) on T2 cells. Kind of experiment: HLA-A2 stabilization assay on T2 cells, peptide titration; EC50 calculated with GraphPad [panel D].
Experiment [10] has the same target. Kind of experiment: HLA-A2 stabilization assay on T2 cells, peptide titration; EC50 calculated with GraphPad [panel E].
The target is the same in experiment [11]. Kind of experiment: HLA-A2 stabilization assay on T2 cells, peptide titration; amplitude = highest data point corrected for baseline [panel E].
For experiment [12], the target named is T2, ROPN1B peptide on HLA-A*02:01 (human).
T2 peptide: MLNYIEQEV
Kind of experiment: multimer staining.

Experiment [13] deals with T3, ROPN1 (counterpart of the ROPN1B MLN epitope, one residue different) peptide on HLA-A*02:01 (human).
T3 peptide: MLNYMEQEV
Kind of experiment: cytokine release.

In experiment [14] the target is T4, ROPN1B epitope 1 (MLN) with alanine at position 6 peptide on HLA-A*02:01 (human).
T4 peptide: MLNYIAQEV
Kind of experiment: cytokine release.

Experiment [15] deals with T5, ROPN1B epitope 1 (MLN) with alanine at position 8 peptide on HLA-A*02:01 (human).
T5 peptide: MLNYIEQAV
Kind of experiment: cytokine release.

Experiment [16] concerns the target T6, ROPN1B epitope 1 (MLN) with alanine at position 9 peptide on HLA-A*02:01 (human).
T6 peptide: MLNYIEQEA
Kind of experiment: cytokine release.

Experiment [17] concerns the target T7, gp100 peptide on HLA-A*02:01 (human).
T7 peptide: YLEPGPVTA
Kind of experiment: cytokine release.

B1: Epitope 16 peptide AELTPELLKI (10-mer derived from immunopeptidome) (peptide)
peptide: AELTPELLKI
notes: Eluted from ROPN1B-overexpressing MDA-MB231 cells; mapped in silico to HLA-B40:01
Turning to B1, in experiment [1], the binding result is “no binding”. Besides, the values for the Minimum stability in experiment [2] and in experiment [3] were 1.08 fold change over baseline and 1.17 fold change over baseline, respectively.

B2: SALGVTITK (peptide)
peptide: SALGVTITK
notes: ROPN1A and ROPN1B, eluted
For the molecule B2, the binding result in [1] was “no binding”. The Minimum stability in [2] turned out to be 0.92 fold change over baseline.

B3: RLIIRAEEL (peptide)
peptide: RLIIRAEEL
notes: ROPN1 and ROPN1B, predicted
On to B3, for which, in experiment [4], the binding result is given as “no binding (tested: 25 ug/mL)”. In addition, the Minimum stability in experiment [2] and in experiment [3] was 0.91 fold change over baseline in each case.

B4: Epitope 10 (FLY-B) peptide FLYTYIAEV of ROPN1B (peptide)
peptide: FLYTYIAEV
notes: Synthetic peptide
The EC50 is the midpoint of the concentration-response curve. On to B4, for which the Minimum stability in experiment [2] is 1.42 fold change over baseline. Also, the Amplitude in experiment [5] is 0.593 relative to YLE. In addition, in experiment [6], the concentration for a half-maximal effect (EC50) was determined as 21.1 µM.

B5: YIAEVDGEI (peptide)
peptide: YIAEVDGEI
notes: ROPN1B, predicted
With B5, the Amplitude in experiment [7] is 0.939 relative to YLE. Further, the Minimum stability came out at 1.41 fold change over baseline in experiment [2] and 1.16 fold change over baseline in [3].

B6: MLN-TCR2 (epitope 1 (MLN)-specific TCR) (TCR, V domains shown)
V domain 1: RGEDVEQSLFLSVREGDSSVINCTYTDSSSTYLYWYKQEPGAGLQLLTYIFSNMDMKQDQRLTVLLNKKDKHLSLRIADTQTGDSAIYFCAEDGGGSYIPTFGRGTSLIVHP
V domain 2: EAGVTQFPSHSVIEKGQTVTLRCDPISGHDNLYWYRRVMGKEIKFLLHFVKESKQDESGMPNNRFLAERTGGTYSTLKVQPAELEDSGVYFCASSPGPGQNSPLHFGNGTRLTVTE
In the case of B6, the “EC50 of T cell IFN-gamma production, peptide titration on BSM cells” value in [8] was 11 nM.

B7: NY-ESO1 peptide SLLMWITQV (peptide)
peptide: SLLMWITQV
notes: also called NY-ESO peptide SLL
In the case of B7, the EC50 in experiment [9] and in [10] was 5.08 µM each time. The Amplitude in [5] is 0.93 relative to YLE; in [11], 4220 geometric mean normalized to baseline.

B8: Epitope 11 (EVI) peptide EVIGPDGLITV of ROPN1B (peptide)
peptide: EVIGPDGLITV
notes: Synthetic peptide
B8 gave a Minimum stability in [2] of 1.57 fold change over baseline. The Amplitude in experiment [5] is 1.12 relative to YLE. For the same molecule, the concentration for a half-maximal effect (EC50) in experiment [6] came to 0.655 µM.

B9: MLN-TCR2 (TCR, V domains shown)
Valpha: GEDVEQSLFLSVREGDSSVINCTYTDSSSTYLYWYKQEPGAGLQLLTYIFSNMDMKQDQRLTVLLNKKDKHLSLRIADTQTGDSAIYFCAEDGGGSYIPTFGRGTSLIVHP
Vbeta: EAGVTQFPSHSVIEKGQTVTLRCDPISGHDNLYWYRRVMGKEIKFLLHFVKESKQDESGMPNNRFLAERTGGTYSTLKVQPAELEDSGVYFCASSPGPGQNSPLHFGNGTRLTVT
For B9, the binding result in experiment [12] was “recognises”; in experiment [13] it was “no recognition”; in experiment [14] it was “recognises”; in experiment [15], “recognises”; in experiment [16], “recognises”; in experiment [17], “no recognition”.
